The supplement of paper PMC9233669
Fewer inactive variants are shown than the library holds.

How the values were obtained:
biotinyl-Phe-oxazolone = assay: self-aminoacylation, catalytic enhancement (BFO) (fold over background); higher = more active; k-Seq, kA / k0A0; sequences stand for … in GGGAAUGGAUCCACAUCUACGAAUUC…UUCACUGCAGACUUGACGAAGCUG
Outline: (§1)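 The uncatalyzed rate is the low-activity peak of a bimodal Gaussian fit, and catalytic enhancement is median kA divided by it. The kA values came from pseudo-first-order fits, with 1000 bootstraps, of per-sequence fraction reacted measured by streptavidin capture, triplicate qPCR and Illumina sequencing. Mutagenized RNA pools with a 21-nt variable region (0.43 μM) were reacted with each biotinyl-aminoacyl-oxazolone at 2–1250 μM in 50 μL HEPES/NaCl/KCl/MgCl2/CaCl2 buffer with 5% acetonitrile, pH 6.9–7.0, for 90 minutes at room temperature.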

biotinyl-Trp-oxazolone = assay: self-aminoacylation, catalytic enhancement (BWO) (fold over background); higher = more active; k-Seq, kA / k0A0; sequences stand for … in GGGAAUGGAUCCACAUCUACGAAUUC…UUCACUGCAGACUUGACGAAGCUG
Outline: as §1

biotinyl-Ile-oxazolone = assay: self-aminoacylation, catalytic enhancement (BIO) (fold over background); higher = more active; k-Seq, kA / k0A0; sequences stand for … in GGGAAUGGAUCCACAUCUACGAAUUC…UUCACUGCAGACUUGACGAAGCUG
Outline: as §1

biotinyl-Leu-oxazolone = assay: self-aminoacylation, catalytic enhancement (BLO) (fold over background); higher = more active; k-Seq, kA / k0A0; sequences stand for … in GGGAAUGGAUCCACAUCUACGAAUUC…UUCACUGCAGACUUGACGAAGCUG
Outline: as §1

biotinyl-Val-oxazolone = assay: self-aminoacylation, catalytic enhancement (BVO) (fold over background); higher = more active; k-Seq, kA / k0A0; sequences stand for … in GGGAAUGGAUCCACAUCUACGAAUUC…UUCACUGCAGACUUGACGAAGCUG
Outline: as §1

biotinyl-Met-oxazolone = assay: self-aminoacylation, catalytic enhancement (BMO) (fold over background); higher = more active; k-Seq, kA / k0A0; sequences stand for … in GGGAAUGGAUCCACAUCUACGAAUUC…UUCACUGCAGACUUGACGAAGCUG
Outline: as §1

Sequence	self-aminoacylation (biotinyl-Phe-oxazolone)	self-aminoacylation (biotinyl-Trp-oxazolone)	self-aminoacylation (biotinyl-Ile-oxazolone)	self-aminoacylation (biotinyl-Leu-oxazolone)	self-aminoacylation (biotinyl-Val-oxazolone)	self-aminoacylation (biotinyl-Met-oxazolone)
AAAUGUGCUAAUAGUCGCAAG [Fam3.1 aminoacylation ribozyme variant]	2.84	1.48	2.12	1.53	1.46	2.16
AUUCCCCUAGGGCAUCGGGUG [Fam2.2 aminoacylation ribozyme variant]	42.8	10.4	7.87	12.4	6.4	10.3
CCACGCUUCAACCAAUCGGUC [Fam1B.1 aminoacylation ribozyme variant]	65.2	40.4	1.16	1.99	1.55	1.37
AAGUUUGUUAAUAAUCGCAAG [Fam3.1 aminoacylation ribozyme variant]	1.05	0.883	0.928	0.995	0.842	0.824
AUUACCCUGGUCAUCGCGUCA [Fam2.1 aminoacylation ribozyme variant]	12.2	2.27		2.14	2.03	2.38
CUUACCGUGGUCAUCGAGUGA [Fam2.1 aminoacylation ribozyme variant]	10.3	3.87		2.59	2.68	3.29
CCACCCUUCAAGCAUUCGGUC [Fam1B.1 aminoacylation ribozyme variant]					2.56	
CCACACUUCAUGCAAUCGGCC [Fam1B.1 aminoacylation ribozyme variant]	14.2		2.44	2.72	2.8	2.9
AUUCACCUAGUUCAUCGGGUG [Fam2.2 aminoacylation ribozyme variant]	12.9	2.49		2.74	2.15	2.49
AUUUACCUAGUUCAUCGGGUG [Fam2.2 aminoacylation ribozyme variant]	15.2	2.25	2.13	3.25		2.61
CCACCCUUCAAGCAAUCGGGC [Fam1B.1 aminoacylation ribozyme variant]	15.4	2.65	2.06		3.02	
AUUCACCUAGGUCAUCGAGUU [Fam2.2 aminoacylation ribozyme variant]	7.47		2.69	4.79	2.25	3.3
AAGUUGGCUAACAGUCGCAAG [Fam3.1 aminoacylation ribozyme variant]	2.15	2.26	2.05			
AUUCACCUAGGUCACCGGGUC [Fam2.2 aminoacylation ribozyme variant]					2.18	
AUUCACCUAAGUCAUUGGGUG [Fam2.2 aminoacylation ribozyme variant]	20.5	2.6	2.31	3.65		3.48
AUUAACCUGGUCCUCGAGUGA [Fam2.1 aminoacylation ribozyme variant]	19.7	4.11	2.3	4.42		3.92
AACUAUGCUAAUAGUCGCAAG [Fam3.1 aminoacylation ribozyme variant]	2.45		2.41	2.16		
AUUCACAUAGGUCAUCUGGUG [Fam2.2 aminoacylation ribozyme variant]	15.7	3.03	2.1	3.86		2.89
CCACCCUUCAAGCAAUCGGCC [Fam1B.1 aminoacylation ribozyme variant]	3.03	3.11			2.39	
CCCCACUUGAAGCAAUCGGUC [Fam1B.1 aminoacylation ribozyme variant]		2.12			2.23	
AUUCACCUAGAUCAUAGGGUG [Fam2.2 aminoacylation ribozyme variant]	13.6	2.9		4.64	2.07	3.97
GCACACUUCAAACAAUCGGUC [Fam1B.1 aminoacylation ribozyme variant]	92.2	59		2.99	2.19	2.13
AUUGCCCUGGUCAUCGAGUGC [Fam2.1 aminoacylation ribozyme variant]	11.6	4.08		4.73	2.32	4.79
GCACACUUCAAGCAACCGGUC [Fam1B.1 aminoacylation ribozyme variant]	2.92	4.35	2.31	2.46	2.43	
CCACACUUCAAGCAACCGGUU [Fam1B.1 aminoacylation ribozyme variant]					2.04	
CCACACUUCAAGCCAUCCGUC [Fam1B.1 aminoacylation ribozyme variant]			2.04			
CCACACCUCAAGCAAUCGCUC [Fam1B.1 aminoacylation ribozyme variant]	9.63	3.13	2.12	2.72		2.85
CCACACUUCAAGCAAUCGGCG [Fam1B.1 aminoacylation ribozyme variant]		2.05			2.18	2.16

Sequence	self-aminoacylation (biotinyl-Phe-oxazolone)	self-aminoacylation (biotinyl-Trp-oxazolone)	self-aminoacylation (biotinyl-Ile-oxazolone)	self-aminoacylation (biotinyl-Leu-oxazolone)	self-aminoacylation (biotinyl-Val-oxazolone)	self-aminoacylation (biotinyl-Met-oxazolone)
ACGCUUGCUAAUAGUCGCAAG [Fam3.1 aminoacylation ribozyme variant]	5.67	2.88	2.28			2.29
CCACACUUCAAGCAACCGCUC [Fam1B.1 aminoacylation ribozyme variant]	8.07				2.09	
CCACACUUCAAGCAAACGGGC [Fam1B.1 aminoacylation ribozyme variant]					2.03	
CCACACAUCAAGCAAUCGGGC [Fam1B.1 aminoacylation ribozyme variant]		2.1	2.01			
AUUCACCUUGGUCAUCUGGUG [Fam2.2 aminoacylation ribozyme variant]	17.9	2.75		3.3	2.16	2.82
CCGCCCUUCAAGCAAUCGGUC [Fam1B.1 aminoacylation ribozyme variant]	38.9	29.9		2.13	2.62	
AAAUUUGCUAAGAGUCGCAAG [Fam3.1 aminoacylation ribozyme variant]	2.61	2.51	2.05			
AAGCUUGCUGAUAGUCGCAAG [Fam3.1 aminoacylation ribozyme variant]	4.23	3.03	2.19		2.45	2.4
CCACACCUCAAGCAAUCGGCC [Fam1B.1 aminoacylation ribozyme variant]		2.61			2.42	
CAGUUUGCUAAUAGUCGCGAG [Fam3.1 aminoacylation ribozyme variant]	12.2	3.86	2.33	3.12	2.01	
AUUCACCUAUUUCAUCGGGUG [Fam2.2 aminoacylation ribozyme variant]	8.43	3.17		3.49	2.02	2.93
AUUACACUGGUCAUGGAGUGA [Fam2.1 aminoacylation ribozyme variant]	2.95	2.06		2.48	2	2.63
CUACUUCAAACACUCGGGCUG [Fam1A.1 aminoacylation ribozyme variant]			2.18	2.06	2.2	
AACUUUGCUAAUAGUUGCAAG [Fam3.1 aminoacylation ribozyme variant]	3.03		2.21			
CUUACCUUGGUCAUCGAGUGA [Fam2.1 aminoacylation ribozyme variant]	3.62	3.9		2.99	2.66	3.25
CAGUUUGCUAAUAGUCGCAAU [Fam3.1 aminoacylation ribozyme variant]	2		2.06			
CCCCACUUCAAACAAUCGGUC [Fam1B.1 aminoacylation ribozyme variant]	140	61.2		2.83	2.15	
AUUACACUCGUCAUCGAGUGA [Fam2.1 aminoacylation ribozyme variant]	18	4.43	2.13	3.87		3.51
AACAUUGCUAAUAGUCGCAAG [Fam3.1 aminoacylation ribozyme variant]	2.9	2.67	2.5			
AUUCACUUAGGUCAUCGGGUA [Fam2.2 aminoacylation ribozyme variant]			2.29		2.15	2.38
AUUACCCUGGUCAUCGCUUGA [Fam2.1 aminoacylation ribozyme variant]	10.7	3.08	2.09			2.25
AAGCUUGCUACUAGUCGCAAG [Fam3.1 aminoacylation ribozyme variant]		2.23	2.45	2.03		2.37
AUUCACCUAGGUCUUCGGGGG [Fam2.2 aminoacylation ribozyme variant]	12		3.04	3.62	3.04	2.43
CCACACUUCACGCAAUCGCUC [Fam1B.1 aminoacylation ribozyme variant]					2.19	
CAACACUUCAAGCAAUCGGGC [Fam1B.1 aminoacylation ribozyme variant]	4.52		2.15	2.2	2.23	2.2
AUUCACCUGGGUCAUCGGGCG [Fam2.2 aminoacylation ribozyme variant]		2.91	3.58	5.26	4.75	4.48
AUUCACCUAGGUUAUCGGGGG [Fam2.2 aminoacylation ribozyme variant]	6.72	2.02		2.29	2.01	
